Measurements: patent US20070232789A1 (UNIVERSITY OF MARYLAND BALTIMORE, published 2007)

T1: A1/A3-C1-C2 heterodimer of factor VIII, plasma-derived (human, UniProt P00451 20-391; P00451 1709-2351)
T1 sequence 1: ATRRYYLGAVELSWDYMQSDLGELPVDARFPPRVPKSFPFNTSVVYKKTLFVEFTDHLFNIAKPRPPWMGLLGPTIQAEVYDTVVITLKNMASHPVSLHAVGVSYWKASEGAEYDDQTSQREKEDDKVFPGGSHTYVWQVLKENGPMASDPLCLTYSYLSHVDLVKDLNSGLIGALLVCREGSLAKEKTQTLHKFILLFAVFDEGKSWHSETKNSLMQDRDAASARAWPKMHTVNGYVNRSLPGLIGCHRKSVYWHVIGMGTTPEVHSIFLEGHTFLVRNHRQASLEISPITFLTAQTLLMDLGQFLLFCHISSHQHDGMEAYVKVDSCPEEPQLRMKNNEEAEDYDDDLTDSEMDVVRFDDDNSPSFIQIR
T1 sequence 2: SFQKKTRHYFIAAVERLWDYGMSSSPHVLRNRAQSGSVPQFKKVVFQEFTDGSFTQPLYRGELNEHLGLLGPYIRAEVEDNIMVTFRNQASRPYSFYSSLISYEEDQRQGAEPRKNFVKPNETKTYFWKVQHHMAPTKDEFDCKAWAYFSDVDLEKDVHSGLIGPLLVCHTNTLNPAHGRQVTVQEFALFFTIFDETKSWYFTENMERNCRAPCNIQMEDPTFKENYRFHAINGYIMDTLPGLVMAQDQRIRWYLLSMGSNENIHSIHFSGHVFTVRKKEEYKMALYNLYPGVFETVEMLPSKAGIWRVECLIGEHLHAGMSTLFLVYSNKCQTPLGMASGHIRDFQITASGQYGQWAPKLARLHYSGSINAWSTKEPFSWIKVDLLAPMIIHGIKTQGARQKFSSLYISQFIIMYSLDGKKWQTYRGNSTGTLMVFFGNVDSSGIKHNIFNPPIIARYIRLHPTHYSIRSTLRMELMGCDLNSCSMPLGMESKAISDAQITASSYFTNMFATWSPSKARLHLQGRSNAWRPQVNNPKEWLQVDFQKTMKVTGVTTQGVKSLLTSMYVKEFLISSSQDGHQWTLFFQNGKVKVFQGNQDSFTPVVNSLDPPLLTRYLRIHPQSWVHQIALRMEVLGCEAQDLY


Legend:
[1] = biological target: T1, A1/A3-C1-C2 heterodimer of factor VIII, …; assay: cell-based or functional assay
[2] = biological target: T2, low-density lipoprotein receptor-related protein (LRP), purified (human, UniProt Q07954 20-4544); assay: SPR, BIAcore 3000, one-site model, KD = koff/kon
T2 construct: mature; also called low density lipoprotein receptor-related protein/α2-macroglobulin receptor; LRP receptor
Source text: Surface plasmon resonance-based binding assay. […] This system allows real-time biomolecular interaction analysis (BIA) using surface plasmon resonance (SPR) technology. One molecule (the ligand) is usually immobilized on the surface of the sensor chip; the second molecule (the analyte) in solution is passed over the chip under conditions of continuous flow, and the amount of the bound analyte is detected by the system. SPR is a non-invasive optical measuring technique which measures the mass concentration of biomolecules in close proximity to the sensor chip where association and dissociation of biomolecular complexes occurs. […] The association (kₒₙ) and dissociation (koff) rate constants were determined using BIAevaluation Version 3.1 software. The data were corrected for bulk refraction index changes and fitted to a one-site binding model by a non-linear regression analysis Equilibrium dissociation constants (KD) were calculated from the ratio koff/kₒₙ.

T2 sequence (Q07954 20-4544, form in doubt): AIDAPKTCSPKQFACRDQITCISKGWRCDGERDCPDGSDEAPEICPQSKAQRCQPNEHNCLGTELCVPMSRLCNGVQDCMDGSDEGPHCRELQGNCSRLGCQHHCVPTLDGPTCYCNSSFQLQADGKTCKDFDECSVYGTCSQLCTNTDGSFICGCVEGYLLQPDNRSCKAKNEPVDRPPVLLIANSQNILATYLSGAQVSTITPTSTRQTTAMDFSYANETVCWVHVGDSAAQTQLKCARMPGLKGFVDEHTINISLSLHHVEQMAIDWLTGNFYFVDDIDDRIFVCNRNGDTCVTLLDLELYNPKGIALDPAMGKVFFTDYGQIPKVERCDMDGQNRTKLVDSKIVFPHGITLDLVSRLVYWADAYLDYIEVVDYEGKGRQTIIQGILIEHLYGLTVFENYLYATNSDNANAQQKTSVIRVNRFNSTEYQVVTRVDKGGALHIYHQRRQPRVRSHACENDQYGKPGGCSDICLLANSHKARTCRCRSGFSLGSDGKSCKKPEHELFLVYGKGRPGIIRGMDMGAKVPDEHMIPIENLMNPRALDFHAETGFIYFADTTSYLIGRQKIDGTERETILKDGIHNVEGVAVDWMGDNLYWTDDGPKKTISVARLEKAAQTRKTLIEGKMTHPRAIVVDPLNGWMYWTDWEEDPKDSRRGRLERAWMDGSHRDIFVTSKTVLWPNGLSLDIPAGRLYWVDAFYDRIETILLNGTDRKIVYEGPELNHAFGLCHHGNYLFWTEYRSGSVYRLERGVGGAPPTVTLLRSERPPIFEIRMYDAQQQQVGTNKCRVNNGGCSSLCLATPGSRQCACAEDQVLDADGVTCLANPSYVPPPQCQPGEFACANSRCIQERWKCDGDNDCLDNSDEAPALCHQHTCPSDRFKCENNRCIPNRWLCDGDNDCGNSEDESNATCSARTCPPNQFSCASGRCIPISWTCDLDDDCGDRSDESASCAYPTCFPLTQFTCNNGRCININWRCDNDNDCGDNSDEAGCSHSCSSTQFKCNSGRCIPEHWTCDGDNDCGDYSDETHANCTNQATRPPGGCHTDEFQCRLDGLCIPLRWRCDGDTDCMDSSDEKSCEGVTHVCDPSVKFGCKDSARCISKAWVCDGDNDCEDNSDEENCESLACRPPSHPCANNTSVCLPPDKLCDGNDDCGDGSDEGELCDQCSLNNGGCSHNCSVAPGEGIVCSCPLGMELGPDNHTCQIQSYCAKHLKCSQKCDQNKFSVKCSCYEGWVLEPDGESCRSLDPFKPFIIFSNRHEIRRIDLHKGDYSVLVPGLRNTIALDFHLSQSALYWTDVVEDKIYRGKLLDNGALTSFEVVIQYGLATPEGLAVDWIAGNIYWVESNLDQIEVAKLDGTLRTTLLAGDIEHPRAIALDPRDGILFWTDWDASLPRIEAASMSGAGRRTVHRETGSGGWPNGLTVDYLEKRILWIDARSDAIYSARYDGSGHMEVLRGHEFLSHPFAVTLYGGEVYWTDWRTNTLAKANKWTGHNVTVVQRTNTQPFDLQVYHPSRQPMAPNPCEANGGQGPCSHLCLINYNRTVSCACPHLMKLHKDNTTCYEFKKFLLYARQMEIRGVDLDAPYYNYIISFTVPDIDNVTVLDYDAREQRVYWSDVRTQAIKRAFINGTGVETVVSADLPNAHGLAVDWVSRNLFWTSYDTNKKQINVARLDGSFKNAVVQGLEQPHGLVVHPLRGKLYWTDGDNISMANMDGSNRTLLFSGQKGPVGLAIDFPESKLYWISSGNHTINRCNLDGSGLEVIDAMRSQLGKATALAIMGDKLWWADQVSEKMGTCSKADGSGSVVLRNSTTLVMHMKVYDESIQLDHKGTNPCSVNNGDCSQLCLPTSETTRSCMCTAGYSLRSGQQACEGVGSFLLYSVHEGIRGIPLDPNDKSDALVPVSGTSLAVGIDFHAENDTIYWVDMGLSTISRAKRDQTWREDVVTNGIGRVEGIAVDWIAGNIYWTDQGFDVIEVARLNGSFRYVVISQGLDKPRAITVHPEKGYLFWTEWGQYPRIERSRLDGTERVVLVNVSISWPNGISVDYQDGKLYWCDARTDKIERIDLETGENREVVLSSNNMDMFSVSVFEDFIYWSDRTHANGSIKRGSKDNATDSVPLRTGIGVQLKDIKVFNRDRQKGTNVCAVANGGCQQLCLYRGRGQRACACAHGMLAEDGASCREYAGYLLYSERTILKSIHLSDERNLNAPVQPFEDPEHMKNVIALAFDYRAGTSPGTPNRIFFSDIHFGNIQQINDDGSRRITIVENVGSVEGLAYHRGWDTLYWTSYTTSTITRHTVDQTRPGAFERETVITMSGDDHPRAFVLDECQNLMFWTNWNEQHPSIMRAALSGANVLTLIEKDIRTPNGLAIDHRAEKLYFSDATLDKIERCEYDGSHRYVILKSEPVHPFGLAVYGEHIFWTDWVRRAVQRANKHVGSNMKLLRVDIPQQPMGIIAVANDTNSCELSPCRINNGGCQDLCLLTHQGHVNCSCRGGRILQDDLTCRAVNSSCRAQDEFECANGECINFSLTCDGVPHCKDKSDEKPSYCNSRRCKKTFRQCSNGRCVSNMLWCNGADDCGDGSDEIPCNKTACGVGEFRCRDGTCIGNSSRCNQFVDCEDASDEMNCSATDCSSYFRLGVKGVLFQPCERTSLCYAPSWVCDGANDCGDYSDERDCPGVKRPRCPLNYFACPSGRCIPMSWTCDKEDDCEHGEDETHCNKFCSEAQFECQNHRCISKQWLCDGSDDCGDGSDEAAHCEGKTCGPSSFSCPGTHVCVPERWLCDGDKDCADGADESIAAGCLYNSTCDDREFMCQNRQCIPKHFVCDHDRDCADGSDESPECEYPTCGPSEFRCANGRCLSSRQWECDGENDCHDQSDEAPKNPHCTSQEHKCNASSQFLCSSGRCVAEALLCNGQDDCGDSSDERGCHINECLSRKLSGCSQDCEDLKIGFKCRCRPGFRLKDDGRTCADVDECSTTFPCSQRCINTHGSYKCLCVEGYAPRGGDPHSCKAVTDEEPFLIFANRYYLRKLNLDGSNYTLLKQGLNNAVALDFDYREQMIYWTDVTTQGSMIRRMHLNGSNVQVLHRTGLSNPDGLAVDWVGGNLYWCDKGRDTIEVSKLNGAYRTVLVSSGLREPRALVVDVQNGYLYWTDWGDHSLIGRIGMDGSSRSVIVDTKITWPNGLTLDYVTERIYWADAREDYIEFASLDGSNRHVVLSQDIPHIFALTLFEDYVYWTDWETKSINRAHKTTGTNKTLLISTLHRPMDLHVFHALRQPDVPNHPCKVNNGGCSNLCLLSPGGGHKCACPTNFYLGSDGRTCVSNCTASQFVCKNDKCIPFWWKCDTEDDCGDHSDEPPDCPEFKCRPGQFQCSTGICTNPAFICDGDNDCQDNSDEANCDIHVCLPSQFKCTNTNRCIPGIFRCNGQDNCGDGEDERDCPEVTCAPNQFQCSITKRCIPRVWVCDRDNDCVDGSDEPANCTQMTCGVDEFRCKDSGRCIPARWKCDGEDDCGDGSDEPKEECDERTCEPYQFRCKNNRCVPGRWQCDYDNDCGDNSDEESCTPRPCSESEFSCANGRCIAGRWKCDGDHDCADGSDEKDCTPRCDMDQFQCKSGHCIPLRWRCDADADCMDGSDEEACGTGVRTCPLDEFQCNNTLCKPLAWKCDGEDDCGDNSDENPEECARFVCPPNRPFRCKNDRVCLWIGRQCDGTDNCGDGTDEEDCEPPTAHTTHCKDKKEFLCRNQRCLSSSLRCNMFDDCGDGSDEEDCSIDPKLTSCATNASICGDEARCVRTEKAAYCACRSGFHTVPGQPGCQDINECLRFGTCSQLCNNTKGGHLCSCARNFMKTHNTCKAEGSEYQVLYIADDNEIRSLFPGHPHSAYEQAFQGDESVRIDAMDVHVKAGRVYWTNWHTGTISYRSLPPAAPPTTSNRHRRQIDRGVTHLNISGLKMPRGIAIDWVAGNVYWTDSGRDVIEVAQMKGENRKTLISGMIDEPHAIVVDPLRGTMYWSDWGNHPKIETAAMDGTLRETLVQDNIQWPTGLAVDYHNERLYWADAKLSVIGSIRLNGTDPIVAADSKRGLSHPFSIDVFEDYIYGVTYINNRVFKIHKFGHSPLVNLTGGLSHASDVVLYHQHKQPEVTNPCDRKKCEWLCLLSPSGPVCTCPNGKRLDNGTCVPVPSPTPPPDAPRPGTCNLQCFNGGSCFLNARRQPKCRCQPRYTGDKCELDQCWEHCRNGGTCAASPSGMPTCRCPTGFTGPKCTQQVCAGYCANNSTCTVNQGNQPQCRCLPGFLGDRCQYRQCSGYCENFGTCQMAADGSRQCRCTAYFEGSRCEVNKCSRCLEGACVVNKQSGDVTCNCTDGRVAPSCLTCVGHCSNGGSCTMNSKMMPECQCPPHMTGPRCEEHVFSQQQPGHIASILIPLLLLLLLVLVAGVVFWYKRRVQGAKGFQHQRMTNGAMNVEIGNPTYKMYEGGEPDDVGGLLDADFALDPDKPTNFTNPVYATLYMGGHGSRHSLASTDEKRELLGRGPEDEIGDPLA

Activity of reconstituted FVIIIa (% of wt activity) [1]	Kd [2] [nM]	Binder
100 % of wt activity	21	recombinant wild-type A2 domain of human factor VIII (hx-A2) (other, Secreted from Sf9 cells as hx-A2 and purified on mAb 8860; Removal of the tag is not reported; also called wt-A2; recombinant A2; not shown: N-terminal hx leader (6xHis tag, vector-derived linker, factor Xa site)) SGAKKHPKTWVHYIAAEEEDWDYAPLVLAPDDRSYKSQYLNNGPQRIGRKYKKVRFMAYTDETFKTREAIQHESGILGPLLYGEVGDTLLIIFKNQASRPYNIYPHGITDVRPLYSRRLPKGVKHLKDFPILPGEIFKYKWTVTVEDGPTKSDPRCLTRYYSSFVNMERDLASGLIGPLLICYKESVDQRGNQIMSDKRNVILFSVFDENRSWYLTENIQRFLPNPAGVQLEDPEFQASNIMHSINGYVFDSLQLSVCLHEVAYWYILSIGAQTDFLSVFFSGYTFKHKMVYEDTLTLFPFSGETVFMSMENPGLWILGCHNSDFRNRGMTALLKVSSCDKNTGDYYEDSYEDISAYLLSKNNAIEPR
91.5 % of wt activity	29	recombinant A2 mutant #17 (Lys-510 to Ala) (other, hx-A2 form from Sf9 cells; not shown: N-terminal hx leader (6xHis tag, vector-derived linker, factor Xa site)) SGAKKHPKTWVHYIAAEEEDWDYAPLVLAPDDRSYKSQYLNNGPQRIGRKYKKVRFMAYTDETFKTREAIQHESGILGPLLYGEVGDTLLIIFKNQASRPYNIYPHGITDVRPLYSRRLPKGVKHLKDFPILPGEIFAYKWTVTVEDGPTKSDPRCLTRYYSSFVNMERDLASGLIGPLLICYKESVDQRGNQIMSDKRNVILFSVFDENRSWYLTENIQRFLPNPAGVQLEDPEFQASNIMHSINGYVFDSLQLSVCLHEVAYWYILSIGAQTDFLSVFFSGYTFKHKMVYEDTLTLFPFSGETVFMSMENPGLWILGCHNSDFRNRGMTALLKVSSCDKNTGDYYEDSYEDISAYLLSKNNAIEPR
73.9 % of wt activity	25.5	recombinant A2 mutant #1 (Lys-376 to Ala) (other, hx-A2 form from Sf9 cells; not shown: N-terminal hx leader (6xHis tag, vector-derived linker, factor Xa site)) SGAAKHPKTWVHYIAAEEEDWDYAPLVLAPDDRSYKSQYLNNGPQRIGRKYKKVRFMAYTDETFKTREAIQHESGILGPLLYGEVGDTLLIIFKNQASRPYNIYPHGITDVRPLYSRRLPKGVKHLKDFPILPGEIFKYKWTVTVEDGPTKSDPRCLTRYYSSFVNMERDLASGLIGPLLICYKESVDQRGNQIMSDKRNVILFSVFDENRSWYLTENIQRFLPNPAGVQLEDPEFQASNIMHSINGYVFDSLQLSVCLHEVAYWYILSIGAQTDFLSVFFSGYTFKHKMVYEDTLTLFPFSGETVFMSMENPGLWILGCHNSDFRNRGMTALLKVSSCDKNTGDYYEDSYEDISAYLLSKNNAIEPR
263 % of wt activity	9.5	recombinant A2 mutant #14 (Lys-496 to Ala) (other, hx-A2 form from Sf9 cells) SGAKKHPKTWVHYIAAEEEDWDYAPLVLAPDDRSYKSQYLNNGPQRIGRKYKKVRFMAYTDETFKTREAIQHESGILGPLLYGEVGDTLLIIFKNQASRPYNIYPHGITDVRPLYSRRLPKGVAHLKDFPILPGEIFKYKWTVTVEDGPTKSDPRCLTRYYSSFVNMERDLASGLIGPLLICYKESVDQRGNQIMSDKRNVILFSVFDENRSWYLTENIQRFLPNPAGVQLEDPEFQASNIMHSINGYVFDSLQLSVCLHEVAYWYILSIGAQTDFLSVFFSGYTFKHKMVYEDTLTLFPFSGETVFMSMENPGLWILGCHNSDFRNRGMTALLKVSSCDKNTGDYYEDSYEDISAYLLSKNNAIEPR
267 % of wt activity	18	recombinant A2 mutant #13 (Lys-493 to Ala) (other, hx-A2 form from Sf9 cells) SGAKKHPKTWVHYIAAEEEDWDYAPLVLAPDDRSYKSQYLNNGPQRIGRKYKKVRFMAYTDETFKTREAIQHESGILGPLLYGEVGDTLLIIFKNQASRPYNIYPHGITDVRPLYSRRLPAGVKHLKDFPILPGEIFKYKWTVTVEDGPTKSDPRCLTRYYSSFVNMERDLASGLIGPLLICYKESVDQRGNQIMSDKRNVILFSVFDENRSWYLTENIQRFLPNPAGVQLEDPEFQASNIMHSINGYVFDSLQLSVCLHEVAYWYILSIGAQTDFLSVFFSGYTFKHKMVYEDTLTLFPFSGETVFMSMENPGLWILGCHNSDFRNRGMTALLKVSSCDKNTGDYYEDSYEDISAYLLSKNNAIEPR
128 % of wt activity	33	recombinant A2 mutant #16 (His-499 to Ala as printed in Tables 1 and 2; Lys^499 in the text) (other, hx-A2 form from Sf9 cells; also called Lys^499 Ala mutant; not shown: N-terminal hx leader (6xHis tag, vector-derived linker, factor Xa site)) SGAKKHPKTWVHYIAAEEEDWDYAPLVLAPDDRSYKSQYLNNGPQRIGRKYKKVRFMAYTDETFKTREAIQHESGILGPLLYGEVGDTLLIIFKNQASRPYNIYPHGITDVRPLYSRRLPKGVKHLADFPILPGEIFKYKWTVTVEDGPTKSDPRCLTRYYSSFVNMERDLASGLIGPLLICYKESVDQRGNQIMSDKRNVILFSVFDENRSWYLTENIQRFLPNPAGVQLEDPEFQASNIMHSINGYVFDSLQLSVCLHEVAYWYILSIGAQTDFLSVFFSGYTFKHKMVYEDTLTLFPFSGETVFMSMENPGLWILGCHNSDFRNRGMTALLKVSSCDKNTGDYYEDSYEDISAYLLSKNNAIEPR
242 % of wt activity	51	recombinant A2 mutant #15 (His-497 to Ala) (other, hx-A2 form from Sf9 cells) SGAKKHPKTWVHYIAAEEEDWDYAPLVLAPDDRSYKSQYLNNGPQRIGRKYKKVRFMAYTDETFKTREAIQHESGILGPLLYGEVGDTLLIIFKNQASRPYNIYPHGITDVRPLYSRRLPKGVKALKDFPILPGEIFKYKWTVTVEDGPTKSDPRCLTRYYSSFVNMERDLASGLIGPLLICYKESVDQRGNQIMSDKRNVILFSVFDENRSWYLTENIQRFLPNPAGVQLEDPEFQASNIMHSINGYVFDSLQLSVCLHEVAYWYILSIGAQTDFLSVFFSGYTFKHKMVYEDTLTLFPFSGETVFMSMENPGLWILGCHNSDFRNRGMTALLKVSSCDKNTGDYYEDSYEDISAYLLSKNNAIEPR
219 % of wt activity	21	recombinant A2 mutant #18 (Lys-512 to Ala) (other, hx-A2 form from Sf9 cells; not shown: N-terminal hx leader (6xHis tag, vector-derived linker, factor Xa site)) SGAKKHPKTWVHYIAAEEEDWDYAPLVLAPDDRSYKSQYLNNGPQRIGRKYKKVRFMAYTDETFKTREAIQHESGILGPLLYGEVGDTLLIIFKNQASRPYNIYPHGITDVRPLYSRRLPKGVKHLKDFPILPGEIFKYAWTVTVEDGPTKSDPRCLTRYYSSFVNMERDLASGLIGPLLICYKESVDQRGNQIMSDKRNVILFSVFDENRSWYLTENIQRFLPNPAGVQLEDPEFQASNIMHSINGYVFDSLQLSVCLHEVAYWYILSIGAQTDFLSVFFSGYTFKHKMVYEDTLTLFPFSGETVFMSMENPGLWILGCHNSDFRNRGMTALLKVSSCDKNTGDYYEDSYEDISAYLLSKNNAIEPR
232 % of wt activity	67	recombinant A2 mutant #9 (Ser-488 to Ala) (other, hx-A2 form from Sf9 cells) SGAKKHPKTWVHYIAAEEEDWDYAPLVLAPDDRSYKSQYLNNGPQRIGRKYKKVRFMAYTDETFKTREAIQHESGILGPLLYGEVGDTLLIIFKNQASRPYNIYPHGITDVRPLYARRLPKGVKHLKDFPILPGEIFKYKWTVTVEDGPTKSDPRCLTRYYSSFVNMERDLASGLIGPLLICYKESVDQRGNQIMSDKRNVILFSVFDENRSWYLTENIQRFLPNPAGVQLEDPEFQASNIMHSINGYVFDSLQLSVCLHEVAYWYILSIGAQTDFLSVFFSGYTFKHKMVYEDTLTLFPFSGETVFMSMENPGLWILGCHNSDFRNRGMTALLKVSSCDKNTGDYYEDSYEDISAYLLSKNNAIEPR
151 % of wt activity	59	recombinant A2 mutant #11 (Arg-490 to Ala) (other, hx-A2 form from Sf9 cells) SGAKKHPKTWVHYIAAEEEDWDYAPLVLAPDDRSYKSQYLNNGPQRIGRKYKKVRFMAYTDETFKTREAIQHESGILGPLLYGEVGDTLLIIFKNQASRPYNIYPHGITDVRPLYSRALPKGVKHLKDFPILPGEIFKYKWTVTVEDGPTKSDPRCLTRYYSSFVNMERDLASGLIGPLLICYKESVDQRGNQIMSDKRNVILFSVFDENRSWYLTENIQRFLPNPAGVQLEDPEFQASNIMHSINGYVFDSLQLSVCLHEVAYWYILSIGAQTDFLSVFFSGYTFKHKMVYEDTLTLFPFSGETVFMSMENPGLWILGCHNSDFRNRGMTALLKVSSCDKNTGDYYEDSYEDISAYLLSKNNAIEPR
518 % of wt activity	21	recombinant A2 mutant #12 (Leu-491 to Ala) (other, hx-A2 form from Sf9 cells) SGAKKHPKTWVHYIAAEEEDWDYAPLVLAPDDRSYKSQYLNNGPQRIGRKYKKVRFMAYTDETFKTREAIQHESGILGPLLYGEVGDTLLIIFKNQASRPYNIYPHGITDVRPLYSRRAPKGVKHLKDFPILPGEIFKYKWTVTVEDGPTKSDPRCLTRYYSSFVNMERDLASGLIGPLLICYKESVDQRGNQIMSDKRNVILFSVFDENRSWYLTENIQRFLPNPAGVQLEDPEFQASNIMHSINGYVFDSLQLSVCLHEVAYWYILSIGAQTDFLSVFFSGYTFKHKMVYEDTLTLFPFSGETVFMSMENPGLWILGCHNSDFRNRGMTALLKVSSCDKNTGDYYEDSYEDISAYLLSKNNAIEPR
